The text below walks through data of article PMC6016464, “Folding and binding pathways of BH3-only proteins are encoded within their intrinsically disordered sequence, not templated by partner proteins” (The Journal of Biological Chemistry, 2018).

Read-outs that look alike come from different tables or passages of the source. Where no end group is shown, it is not given here. The star is where a group is joined. TAMRA = 5-carboxytetramethylrhodamine, CN(C)c1ccc2c(-c3ccc(C(=O)*)cc3C(=O)[O-])c3ccc(=[N+](C)C)cc-3oc2c1

The target of test [1] is T1, MCL-1 (mouse, residues 152-308) (mouse).
T1 construct: remnant of thrombin cleavage at the N-terminus of MCL-1; MCL-1, mouse, residues 152-308, UniProt P97287; source: E. coli C41 pLysS, purified (Ni2+ agarose, thrombin cleavage, ion exchange, Superdex G75 gel filtration); not shown: His6, N-terminal, cleaved
T1 chain: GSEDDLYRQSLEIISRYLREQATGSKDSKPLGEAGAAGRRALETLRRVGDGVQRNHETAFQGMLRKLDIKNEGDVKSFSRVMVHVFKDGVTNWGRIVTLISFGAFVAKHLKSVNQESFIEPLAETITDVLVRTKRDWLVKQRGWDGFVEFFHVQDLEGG
Briefly: other fluorescence titration; equilibrium binding curve of TAMRA-labelled peptide, fluorescence (A.U.) against MCL-1 concentration; 50 mM sodium phosphate, 0.05% (v/v) Tween 20, pH 7.0. The conditions noted are these: both partners purified.

Test [2] concerns the target T2, A1 protein (mouse, residues 1-152, P104K C113S, used as wild type) (mouse).
T2 sequence (Q07440 1-152 with P104K C113S, looked up): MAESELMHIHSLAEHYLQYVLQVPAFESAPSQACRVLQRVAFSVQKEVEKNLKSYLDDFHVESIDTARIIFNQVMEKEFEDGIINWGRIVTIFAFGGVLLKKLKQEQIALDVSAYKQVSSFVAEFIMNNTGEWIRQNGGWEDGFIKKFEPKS
Briefly: stopped-flow fluorescence kinetics + other: fluorescence dissociation kinetics with competitor; Kd calculated as the ratio koff/kon of the kinetic rate constants; 25 °C; 50 mM sodium phosphate, 0.05% (v/v) Tween 20, pH 7.0.

For test [3] the target is unchanged. Briefly: stopped-flow fluorescence kinetics; association; TAMRA-labelled peptide with folded partner at least 10-fold higher (pseudo-first-order); kon from the gradient of kobs versus partner concentration; 25 °C; 50 mM sodium phosphate, 0.05% (v/v) Tween 20, pH 7.0.
Test [4] shares this target. Briefly: fluorescence dissociation kinetics with competitor; dissociation; preformed complex of TAMRA-labelled peptide and partner protein mixed with excess unlabeled PUMA peptide as competitor; stopped-flow or Cary Eclipse spectrophotometer; 25 °C; 50 mM sodium phosphate, 0.05% (v/v) Tween 20, pH ….
The target is the same in test [5]. Briefly: fluorescence polarisation; equilibrium binding by fluorescence anisotropy of the TAMRA-labelled peptide against partner protein concentration; anisotropy adjusted for the change in fluorescence intensity; 25 °C; 50 mM sodium phosphate, 0.05% (v/v) Tween 20, pH 7.0.
Test [6] addresses T1, MCL-1 (mouse, residues 152-308). Briefly: stopped-flow fluorescence kinetics + other: fluorescence dissociation kinetics with competitor; Kd calculated as the ratio koff/kon of the kinetic rate constants; 25 °C; 50 mM sodium phosphate, 0.05% (v/v) Tween 20, pH 7.0. To be noted: both partners purified.
Test [7] deals with T2, A1 protein (mouse, residues 1-152, P104K C113S, used as wild type) (mouse). Briefly: stopped-flow fluorescence kinetics; association; TAMRA-labelled peptide with folded partner at least 10-fold higher (pseudo-first-order); kon from the gradient of kobs versus partner concentration; 25 °C; 50 mM sodium phosphate, 0.05% (v/v) Tween 20, pH 7.0. This is another data set of the same source.

Test [8] deals with T1, MCL-1 (mouse, residues 152-308). Briefly: stopped-flow fluorescence kinetics; association; TAMRA-labelled peptide with folded partner at least 10-fold higher (pseudo-first-order); kon from the gradient of kobs versus partner concentration; 25 °C; 50 mM sodium phosphate, 0.05% (v/v) Tween 20, pH 7.0. The conditions noted are these: both partners purified. In a few lines: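 TAMRA-labelled peptide was mixed with mouse MCL-1 (residues 152–308) by stopped-flow in 50 mM sodium phosphate, 0.05% (v/v) Tween 20, pH 7.0, at 25 °C, with the partner at least 10-fold in excess. Fluorescence was excited at 555 nm and collected above 570 nm. At least 15 traces were averaged, points before the 1 ms deadtime were discarded, and single-exponential fits yielded kobs. The association rate constant (kon) is the slope of kobs plotted against partner concentration.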

Test [9] has as its target T2, A1 protein (mouse, residues 1-152, P104K C113S, used as wild type) (mouse). Briefly: fluorescence dissociation kinetics with competitor; dissociation; preformed complex of TAMRA-labelled peptide and partner protein mixed with excess unlabeled PUMA peptide as competitor; stopped-flow or Cary Eclipse spectrophotometer; 25 °C; 50 mM sodium phosphate, 0.05% (v/v) Tween 20, pH …. The source holds these as a separate data set.

Test [10] deals with T1, MCL-1 (mouse, residues 152-308). Briefly: fluorescence dissociation kinetics with competitor; dissociation; preformed complex of TAMRA-labelled peptide and partner protein mixed with excess unlabeled PUMA peptide as competitor; stopped-flow or Cary Eclipse spectrophotometer; 25 °C; 50 mM sodium phosphate, 0.05% (v/v) Tween 20, pH 7.0. The conditions noted are these: both partners purified. The method in brief:
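The dissociation rate constant comes from competitor displacement of a preformed complex of TAMRA-labelled peptide and mouse MCL-1 (residues 152–308), mixed with various concentrations of unlabelled competitor peptide. Runs were at 25 °C in 50 mM sodium phosphate, 0.05% (v/v) Tween 20, pH 7.0, read on stopped-flow (kobs > 0.03 s^−1) or Cary Eclipse (kobs < 0.03 s^−1). Fluorescence changes were fit to single exponentials. With sufficient competitor excess, concentration-independent kobs values were averaged as koff.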

The target is the same in test [11]. Briefly: fluorescence polarisation; equilibrium binding by fluorescence anisotropy of the TAMRA-labelled peptide against partner protein concentration; anisotropy adjusted for the change in fluorescence intensity; 25 °C; 50 mM sodium phosphate, 0.05% (v/v) Tween 20, pH 7.0. To be noted: both partners purified.
Test [12] addresses T3, MCL-1 (mouse, residues 152-308) (mouse, UniProt P97287 152-308).
T3 construct: MCL-1, mouse, residues 152-308, UniProt P97287; source: recombinantly produced, purified (protocol in the supplemental Experimental Procedures)
Briefly: dissociation kinetics by competition (fluorescence); preformed complex of TAMRA peptide and partner protein mixed with various concentrations of unlabeled PUMA peptide as competitor; stopped-flow or spectrophotometer; 25 °C; 50 mM sodium phosphate, 0.05% (v/v) Tween 20, pH 7.0. The conditions noted are these: both partners purified.

B1: PUMA (A139G A150G) peptide (on the M144A wild type), TAMRA-labelled (peptide, UniProt Q99ML1 127-161, looked up)
chain: {TAMRA}-RVEEEEWAREIGGQLRRAADDLNGQYERRRQEEQH
notes: PUMA, mouse, residues 127-161, UniProt Q99ML1; Double mutant; also called A150G (A139G); source: synthetic peptide (Biomatik)
The term Kd denotes the equilibrium constant for the complex coming apart. Usually kon stands for the second-order rate constant of association. What is called koff is a measure of how fast the partners let go of each other. Higher therefore signals fast dissociation. With B1, the values for the Kd in test [1] and in [2] were 1.7 ± 0.2 nM and 1.4 nM, respectively. For the same molecule, the kon in test [3] came to 2.78e+06 M⁻¹ s⁻¹. In addition, in [4], the koff was 0.0039 s⁻¹.

For {TAMRA}-RVEEEEWAREIGAQARRAADDLNAQYERRRQEEQH [PUMA L141A peptide (on the M144A wild type), TAMRA-labelled], the equilibrium dissociation constant (Kd) in test [2] was 735 nM; in [5], 710 nM. This molecule also showed an on-rate constant (kon) in [3] of 1.67e+06 M⁻¹ s⁻¹. The molecule further displayed a koff in [4] of 1.23 s⁻¹.

B2: BID E81A peptide, TAMRA-labelled (peptide, UniProt P70444 76-110, looked up)
chain: {TAMRA}-SESQEAIIHNIARHLAQIGDEMDHNIQPTLVRQLA
notes: BID, mouse, residues 76-110, UniProt P70444; source: synthetic peptide (Biomatik)
In the case of B2, the Kd is 0.02 nM in test [2] and 0.55 nM in test [6]. For the same molecule, the association rate constant (kon) in test [7] is 1.07e+07 M⁻¹ s⁻¹; in [8], 6.5e+06 M⁻¹ s⁻¹. Also, the dissociation rate constant (koff) worked out at 0.000213 s⁻¹ in test [9] and 0.0036 s⁻¹ in test [10].

B3: BID M97A peptide, TAMRA-labelled (peptide, UniProt P70444 76-110, looked up)
chain: {TAMRA}-SESQEEIIHNIARHLAQIGDEADHNIQPTLVRQLA
notes: as for B2
On to B3, for which the dissociation constant (Kd) in [2] is 0.19 nM; in test [6] it was 3.8 nM. Moreover, the values for the association rate constant (kon) in [3] and in [8] were 8.1e+06 M⁻¹ s⁻¹ and 7.8e+06 M⁻¹ s⁻¹, respectively. The figures for the koff in test [4] and in test [10] were 0.0015 s⁻¹ and 0.03 s⁻¹, respectively.

B4: BID I83A peptide, TAMRA-labelled (peptide, UniProt P70444 76-110, looked up)
chain: {TAMRA}-SESQEEIAHNIARHLAQIGDEMDHNIQPTLVRQLA
notes: as for B2
B4: the dissociation constant (Kd) in [2] is 0.29 nM; in test [6], 1.7 nM. Moreover, the on-rate constant (kon) in test [7] stood at 7e+06 M⁻¹ s⁻¹; in [8] it was 8.6e+06 M⁻¹ s⁻¹. Further, the koff came out at 0.002 s⁻¹ in test [9] and 0.014 s⁻¹ in [10].

B5: BID R88A peptide, TAMRA-labelled (peptide, UniProt P70444 76-110, looked up)
chain: {TAMRA}-SESQEEIIHNIAAHLAQIGDEMDHNIQPTLVRQLA
notes: as for B2
As for B5, the Kd is 0.16 nM in test [2] and 0.6 nM in test [6]. Besides, the kon in [3] stood at 5.3e+06 M⁻¹ s⁻¹; in [8] it was 1e+07 M⁻¹ s⁻¹. The off-rate (koff) in test [4] stood at 0.00088 s⁻¹; in test [10] it was 0.0063 s⁻¹.

B6: BID E81G peptide, TAMRA-labelled (peptide, UniProt P70444 76-110, looked up)
chain: {TAMRA}-SESQEGIIHNIARHLAQIGDEMDHNIQPTLVRQLA
notes: as for B2
Regarding B6, the Kd was 0.047 nM in [2] and 1.6 nM in [6]. Moreover, the figures for the kon in test [7] and in test [8] were 9.6e+06 M⁻¹ s⁻¹ and 4.8e+06 M⁻¹ s⁻¹, respectively. Besides, the koff in test [9] turned out to be 0.000454 s⁻¹; in test [10], 0.008 s⁻¹.

B7: BID L90A peptide, TAMRA-labelled (peptide, UniProt P70444 76-110, looked up)
chain: {TAMRA}-SESQEEIIHNIARHAAQIGDEMDHNIQPTLVRQLA
notes: as for B2
In the case of B7, the dissociation constant (Kd) in test [2] was 210 nM; in test [6] it was 610 nM; in test [5], 360 nM; in test [11], 1200 nM. Further, the kon in [3] was determined as 3.1e+06 M⁻¹ s⁻¹; in test [8], 2.1e+06 M⁻¹ s⁻¹. In addition, the koff in test [4] came to 0.66 s⁻¹; in [10], 1.3 s⁻¹.

B8: BID R88G peptide, TAMRA-labelled (peptide, UniProt P70444 76-110, looked up)
chain: {TAMRA}-SESQEEIIHNIAGHLAQIGDEMDHNIQPTLVRQLA
notes: as for B2
Take B8: the Kd is 0.6 nM in test [2] and 1.8 nM in [6]. The on-rate constant (kon) in test [3] came to 4.9e+06 M⁻¹ s⁻¹; in [8], 8.3e+06 M⁻¹ s⁻¹. Moreover, the dissociation rate constant (koff) in test [4] worked out at 0.00303 s⁻¹; in test [10], 0.015 s⁻¹.

B9: BID I101A peptide, TAMRA-labelled (peptide, UniProt P70444 76-110, looked up)
chain: {TAMRA}-SESQEEIIHNIARHLAQIGDEMDHNAQPTLVRQLA
notes: as for B2
Take B9: the Kd was 0.022 nM in [2] and 0.3 nM in test [6]. Further, the kon in test [7] was found to be 8.6e+06 M⁻¹ s⁻¹; in test [8] it was 8.2e+06 M⁻¹ s⁻¹. In addition, the figures for the koff in test [9] and in test [10] were 0.0002 s⁻¹ and 0.0025 s⁻¹, respectively.

Turning to {TAMRA}-RVEEEEWAREIGAQLRRAADDANAQYERRRQEEQH [PUMA L148A peptide (on the M144A wild type), TAMRA-labelled], the results for the Kd in test [2] and in [5] were 7.1 nM and 5.65 nM, respectively. This molecule showed a kon in test [3] of 4.9e+06 M⁻¹ s⁻¹. This molecule showed a koff in [4] of 0.0348 s⁻¹.

B10: BID peptide (mouse, residues 76-110), N-terminal TAMRA (peptide, UniProt P70444 76-110, looked up)
peptide: {TAMRA}-SESQEEIIHNIARHLAQIGDEMDHNIQPTLVRQLA
notes: BID, mouse, residues 76-110, UniProt P70444; source: synthetic peptide (synthesized by Biomatik)
Take B10: the binding result in [12] is listed as “binds”.
